Drawing on article PMC11969024 (2025), this text covers enrichment for 150 variants.

B1: peptide HD2 (from tick evasin EVA4) / CCL22 (biotinylated, synthetic) (parent complex)
chain 1: EEDDYTAYAPLTCYFT
chain 2: GPYGANMEDSVCCRDYVRYRLPLRVVKHFYWTSDSCPRPGVVLLTFRDKEICADPRVPWVKMILNKLSQ
B2: peptide HD2 (from tick evasin EVA4) / CCL11 (biotinylated, synthetic) (parent complex)
chain 1: EEDDYTAYAPLTCYFT
chain 2: not shown

The variants in one experiment derive from B1.
As for chain 1 C13S, the enrichment is -3.73 log2 (difference from the parental peptide).
Regarding chain 1 C13M, the enrichment is -3.12 log2 (difference from the parental peptide).
For chain 1 C13A, the enrichment was -6.82 log2 (difference from the parental peptide).
Turning to chain 1 Y5D, the enrichment was -5.05 log2 (difference from the parental peptide).
As for chain 1 T16K, the enrichment was 2.2 log2 (difference from the parental peptide).
For the variant chain 1 Y8D, the enrichment was -7.54 log2 (difference from the parental peptide).
Still for that read-out and setting: the value for chain 1 Y8L was -7.77 log2 (difference from the parental peptide); that for chain 1 E2N was -3.61 log2 (difference from the parental peptide).
chain 1 E2L: the enrichment is -2.82 log2 (difference from the parental peptide).
As to chain 1 E2S, the enrichment was -3.12 log2 (difference from the parental peptide).
In the case of chain 1 Y14D, the enrichment was -4.53 log2 (difference from the parental peptide).
Take chain 1 D3H: the enrichment is -5.38 log2 (difference from the parental peptide).
With chain 1 D3G, the enrichment is -4.28 log2 (difference from the parental peptide).
Consider chain 1 T12C, for which the enrichment was -1.01 log2 (difference from the parental peptide).
As to chain 1 T12G, the enrichment was -10.3 log2 (difference from the parental peptide).
Turning to chain 1 A9N, the enrichment was -4.75 log2 (difference from the parental peptide).
chain 1 A9W: the enrichment was -3.76 log2 (difference from the parental peptide).
On the same count and under the same terms, under chain 1 T6L stands -2.3 log2 (difference from the parental peptide); under chain 1 A7I, -3 log2 (difference from the parental peptide); under chain 1 A7T, -1.44 log2 (difference from the parental peptide).
chain 1 A7E: the enrichment is 1.56 log2 (difference from the parental peptide).
With chain 1 D4F, the enrichment is -7.18 log2 (difference from the parental peptide).
As for chain 1 D4N, the enrichment is -4.06 log2 (difference from the parental peptide).

The variants in a further experiment derive from B2.
With chain 1 T16C, the enrichment was -0.0325 log2 (difference from the parental peptide).
Turning to chain 1 T16F, the enrichment was -0.46 log2 (difference from the parental peptide).
The same measure, in the same setting: the value for chain 1 T16H was 0.297 log2 (difference from the parental peptide); that for chain 1 T16A was 1.44 log2 (difference from the parental peptide); that for chain 1 T16R was -1.09 log2 (difference from the parental peptide).
As to chain 1 T16K, the enrichment is -0.03 log2 (difference from the parental peptide).
Still for that read-out and setting: under chain 1 T16L stands 0.412 log2 (difference from the parental peptide); under chain 1 T16Q, 1.62 log2 (difference from the parental peptide); under chain 1 T16W, -0.88 log2 (difference from the parental peptide).
For chain 1 T16Y, the enrichment was -0.239 log2 (difference from the parental peptide).
Regarding chain 1 D3P, the enrichment was -3.5 log2 (difference from the parental peptide).
Turning to chain 1 D3C, the enrichment is -10.5 log2 (difference from the parental peptide).
With chain 1 D3W, the enrichment was -3.25 log2 (difference from the parental peptide).
In the case of chain 1 D3I, the enrichment is -3.65 log2 (difference from the parental peptide).
Same read-out and setting: under chain 1 D3L stands -3.39 log2 (difference from the parental peptide).
As for chain 1 D3S, the enrichment was -2.82 log2 (difference from the parental peptide).
chain 1 D3M: the enrichment was -2.72 log2 (difference from the parental peptide).
With chain 1 D3N, the enrichment is -2.05 log2 (difference from the parental peptide).
Turning to chain 1 Y14T, the enrichment is -4.02 log2 (difference from the parental peptide).
On the same count and under the same terms, the value for chain 1 Y14E was -7.34 log2 (difference from the parental peptide); that for chain 1 Y14R was -8.35 log2 (difference from the parental peptide); that for chain 1 Y14V was -3.71 log2 (difference from the parental peptide).
As to chain 1 Y14F, the enrichment is 0.149 log2 (difference from the parental peptide).
Consider chain 1 Y14D, for which the enrichment is -4.78 log2 (difference from the parental peptide).
Still for that read-out and setting: under chain 1 E1P stands -1 log2 (difference from the parental peptide).
Regarding chain 1 E1T, the enrichment is -0.645 log2 (difference from the parental peptide).
chain 1 E1R: the enrichment is -2.69 log2 (difference from the parental peptide).
In the case of chain 1 E1S, the enrichment is -0.538 log2 (difference from the parental peptide).
For the variant chain 1 E1V, the enrichment was -1.08 log2 (difference from the parental peptide).
chain 1 E1A: the enrichment is -0.354 log2 (difference from the parental peptide).
With chain 1 E1G, the enrichment is -0.291 log2 (difference from the parental peptide).
On the same count and under the same terms, under chain 1 E1F stands -2.2 log2 (difference from the parental peptide); under chain 1 E1K, -2.4 log2 (difference from the parental peptide); under chain 1 L11S, -0.475 log2 (difference from the parental peptide).
Regarding chain 1 L11N, the enrichment was -4.38 log2 (difference from the parental peptide).
Consider chain 1 L11R, for which the enrichment is -0.735 log2 (difference from the parental peptide).
For chain 1 A9K, the enrichment is -4.4 log2 (difference from the parental peptide).
Still for that read-out and setting: the value for chain 1 A9G was -4.51 log2 (difference from the parental peptide); that for chain 1 A9R was -1.6 log2 (difference from the parental peptide).
On the same count and under the same terms, the value for chain 1 A9Y was -4.85 log2 (difference from the parental peptide); that for chain 1 A9L was -7.13 log2 (difference from the parental peptide); that for chain 1 A9M was -3.46 log2 (difference from the parental peptide).
Regarding chain 1 A9E, the enrichment is 0.893 log2 (difference from the parental peptide).
With chain 1 A9V, the enrichment is -5.98 log2 (difference from the parental peptide).
As to chain 1 A9S, the enrichment is -1.28 log2 (difference from the parental peptide).
chain 1 Y5S: the enrichment is -5.35 log2 (difference from the parental peptide).
In the case of chain 1 Y5M, the enrichment was -1.54 log2 (difference from the parental peptide).
Same read-out and setting: under chain 1 Y5G stands -5.68 log2 (difference from the parental peptide).
On to chain 1 Y5F, for which the enrichment is 0.0717 log2 (difference from the parental peptide).
As for chain 1 Y5D, the enrichment is -3.62 log2 (difference from the parental peptide).
On to chain 1 Y5H, for which the enrichment was -6.32 log2 (difference from the parental peptide).
On the same count and under the same terms, the value for chain 1 Y5N was -5.96 log2 (difference from the parental peptide); that for chain 1 Y5A was -6.65 log2 (difference from the parental peptide); that for chain 1 D4E was -0.216 log2 (difference from the parental peptide).
chain 1 D4T: the enrichment was -4.2 log2 (difference from the parental peptide).
Regarding chain 1 D4G, the enrichment was -4.8 log2 (difference from the parental peptide).
For the variant chain 1 D4Y, the enrichment was -1.9 log2 (difference from the parental peptide).
For the variant chain 1 D4K, the enrichment was -5.45 log2 (difference from the parental peptide).
As to chain 1 D4W, the enrichment was -3.16 log2 (difference from the parental peptide).
For chain 1 D4R, the enrichment is -6.08 log2 (difference from the parental peptide).
Take chain 1 D4Q: the enrichment was -3.06 log2 (difference from the parental peptide).
For chain 1 D4I, the enrichment was -4.32 log2 (difference from the parental peptide).
chain 1 D4N: the enrichment was -2.87 log2 (difference from the parental peptide).
Consider chain 1 D4P, for which the enrichment was -3.25 log2 (difference from the parental peptide).
chain 1 D4A: the enrichment was -3.23 log2 (difference from the parental peptide).
Consider chain 1 D4L, for which the enrichment was -4.32 log2 (difference from the parental peptide).
Take chain 1 D4F: the enrichment was -4.42 log2 (difference from the parental peptide).
On to chain 1 D4S, for which the enrichment was -3.54 log2 (difference from the parental peptide).
On to chain 1 T12H, for which the enrichment was -1.8 log2 (difference from the parental peptide).
Take chain 1 T12P: the enrichment is -3.61 log2 (difference from the parental peptide).
Regarding chain 1 T12K, the enrichment was -5.35 log2 (difference from the parental peptide).
Consider chain 1 T12Q, for which the enrichment is -1.12 log2 (difference from the parental peptide).
Turning to chain 1 T12A, the enrichment is -2.95 log2 (difference from the parental peptide).
Consider chain 1 T12F, for which the enrichment is -3.13 log2 (difference from the parental peptide).
On to chain 1 T12Y, for which the enrichment was -1.75 log2 (difference from the parental peptide).
Same read-out and setting: under chain 1 P10Q stands -3.8 log2 (difference from the parental peptide).
In the case of chain 1 P10L, the enrichment is -9.08 log2 (difference from the parental peptide).
Turning to chain 1 P10Y, the enrichment is -5.97 log2 (difference from the parental peptide).
In the case of chain 1 C13S, the enrichment is -5.22 log2 (difference from the parental peptide).
The same measure, in the same setting: under chain 1 C13M stands -6.39 log2 (difference from the parental peptide); under chain 1 C13Y, -6.32 log2 (difference from the parental peptide).
Regarding chain 1 C13H, the enrichment is -9.22 log2 (difference from the parental peptide).
As to chain 1 C13Q, the enrichment is -8.37 log2 (difference from the parental peptide).
On to chain 1 C13A, for which the enrichment is -8.03 log2 (difference from the parental peptide).
With chain 1 F15K, the enrichment was -4.78 log2 (difference from the parental peptide).
Turning to chain 1 F15S, the enrichment is 0.275 log2 (difference from the parental peptide).
The same measure, in the same setting: the value for chain 1 F15N was -1.58 log2 (difference from the parental peptide); that for chain 1 F15V was 0.59 log2 (difference from the parental peptide); that for chain 1 F15G was -2.42 log2 (difference from the parental peptide).
On the same count and under the same terms, the value for chain 1 F15C was -4.03 log2 (difference from the parental peptide); that for chain 1 F15W was -1.47 log2 (difference from the parental peptide); that for chain 1 F15H was -0.581 log2 (difference from the parental peptide).
As for chain 1 T6L, the enrichment is -2.13 log2 (difference from the parental peptide).
Regarding chain 1 T6M, the enrichment is -0.715 log2 (difference from the parental peptide).
For the variant chain 1 T6N, the enrichment is 1.61 log2 (difference from the parental peptide).
Consider chain 1 T6I, for which the enrichment is -5.35 log2 (difference from the parental peptide).
As to chain 1 T6K, the enrichment is -1.28 log2 (difference from the parental peptide).
Consider chain 1 T6Q, for which the enrichment was 0.834 log2 (difference from the parental peptide).
Regarding chain 1 T6E, the enrichment is 3.27 log2 (difference from the parental peptide).
As for chain 1 T6D, the enrichment is 3.92 log2 (difference from the parental peptide).
Same read-out and setting: the value for chain 1 T6A was 1.96 log2 (difference from the parental peptide); that for chain 1 Y8V was -8.13 log2 (difference from the parental peptide).
Same read-out and setting: under chain 1 Y8A stands -4.4 log2 (difference from the parental peptide); under chain 1 Y8M, -6.75 log2 (difference from the parental peptide).
Consider chain 1 Y8L, for which the enrichment is -9.35 log2 (difference from the parental peptide).
In the case of chain 1 Y8F, the enrichment is 1.62 log2 (difference from the parental peptide).
As for chain 1 Y8N, the enrichment was -5.38 log2 (difference from the parental peptide).
Turning to chain 1 Y8W, the enrichment is -1.91 log2 (difference from the parental peptide).
For the variant chain 1 A7F, the enrichment is -1.71 log2 (difference from the parental peptide).
The same measure, in the same setting: the value for chain 1 A7V was -0.751 log2 (difference from the parental peptide); that for chain 1 A7E was 2.59 log2 (difference from the parental peptide).
On the same count and under the same terms, the value for chain 1 A7P was 0.578 log2 (difference from the parental peptide); that for chain 1 A7G was -1.16 log2 (difference from the parental peptide).
As for chain 1 A7R, the enrichment was 0.794 log2 (difference from the parental peptide).
In the case of chain 1 A7Y, the enrichment is -0.616 log2 (difference from the parental peptide).
Take chain 1 A7N: the enrichment was 1.29 log2 (difference from the parental peptide).
Consider chain 1 A7M, for which the enrichment is 1.99 log2 (difference from the parental peptide).
On the same count and under the same terms, the value for chain 1 A7T was -0.43 log2 (difference from the parental peptide); that for chain 1 A7S was 0.886 log2 (difference from the parental peptide).
On the same count and under the same terms, the value for chain 1 E2H was -2.49 log2 (difference from the parental peptide); that for chain 1 E2W was -2.09 log2 (difference from the parental peptide).
For chain 1 E2T, the enrichment was -2.27 log2 (difference from the parental peptide).
Turning to chain 1 E2L, the enrichment is -1.7 log2 (difference from the parental peptide).
Take chain 1 E2A: the enrichment was -0.825 log2 (difference from the parental peptide).
On to chain 1 E2V, for which the enrichment is -1.61 log2 (difference from the parental peptide).
For the variant chain 1 E2D, the enrichment was 1.39 log2 (difference from the parental peptide).
On to chain 1 E2R, for which the enrichment is -4.24 log2 (difference from the parental peptide).
